Laboratory results reported in patent publication US12331106B2, “Anti-angiopoietin-2 antibodies that induce Tie2 activation” (Institute for Basic Science, priority 2018, dated 2025).
Substitutions are numbered along the chain they refer to.

B1: 2C8: mouse monoclonal anti-Ang2 antibody; VH SEQ ID NO: 19, VL SEQ ID NO: 21; hybridoma KCLRF-BP-00417 (antibody, V domains shown)
VH: QVQLQQSGPQLVRPGASVKISCKASGYSFTSYWMHWVKQRPGQGLEWIGMIDPSDSETRLNQKFKDKASLTVDKSSSTAYMQLSSPTSGDSAVYYCARRFYYGSDWYFDVWGAGSTVTVSS
VL: DIVMTQSHKFMSTSVGDRVSITCKASQDVGTAVAWYQQKPGQSPKLLIYWASTRHTGVPDRFTGSGSGTDFTLTISNVQSEDLADYFCQQYSSYPLTFGSGTKLEIK
modifications: Heavy Chain Variable Region; Light Chain Variable Region
notes: mouse monoclonal anti-Ang2 antibody; hybridoma KCLRF-BP-00417
B2: 4B9: mouse monoclonal anti-Ang2 antibody; VH SEQ ID NO: 9, VL SEQ ID NO: 11; hybridoma KCLRF-BP-00418 (antibody, V domains shown)
VH: EVQLVESGGGLVKPGGSLKLSCAASGFTFSDYYMYWVRQTPEKRLEWVATISVGGSFTYYPDSVKGRFTISRDNAKNNLYLQMSSLKSEDTAMYYCARDWGLRPWFVYWGQGTLVTVSA
VL: B1 VL with G30S, F71Y, N77S, S80A, D85L, F87Y, Y91H, S92Y, Y94T, L96P
modifications: Heavy Chain Variable Region; Light Chain Variable Region
notes: mouse monoclonal anti-Ang2 antibody; hybridoma KCLRF-BP-00418

Legend:
[1] = molecular target: T1, hAng2 (Homo sapiens, UniProt O15123); assay: OCTET affinity of mouse monoclonal anti-Ang2 antibodies against hAng2; conditions: hAng2 fixed on AR2G biosensor, 1:1 binding model
T1 sequence (O15123 19-496): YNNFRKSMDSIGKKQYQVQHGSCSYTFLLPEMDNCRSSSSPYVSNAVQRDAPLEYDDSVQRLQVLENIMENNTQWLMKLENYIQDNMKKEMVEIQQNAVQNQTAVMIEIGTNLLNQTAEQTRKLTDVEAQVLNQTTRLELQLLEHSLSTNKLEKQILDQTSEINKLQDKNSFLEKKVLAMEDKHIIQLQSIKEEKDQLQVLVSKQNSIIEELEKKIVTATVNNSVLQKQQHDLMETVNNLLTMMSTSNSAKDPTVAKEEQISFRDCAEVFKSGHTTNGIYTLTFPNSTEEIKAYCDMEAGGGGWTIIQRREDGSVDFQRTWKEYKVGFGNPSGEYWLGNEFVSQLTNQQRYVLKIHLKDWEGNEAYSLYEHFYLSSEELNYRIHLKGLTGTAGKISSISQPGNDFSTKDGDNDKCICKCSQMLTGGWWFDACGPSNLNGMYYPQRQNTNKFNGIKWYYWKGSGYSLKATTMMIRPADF
Experimental: The affinity of mouse monoclonal antibody against hAng2 was measured using OCTET® system (ForteBio, real-time, label-free bio-layer interferometry system for determination of affinity, kinetics, and concentration). Specifically, buffer and samples were measured in total 200 μl/well using Black 96-well plates (96 well F-type black plates, Greiner). The biosensor used for affinity measurements was hydrated for 10 min before measurement with AR2G tip (ForteBio OCTET®). After the hydration, hAng2 was diluted in 10 mM sodium acetate, pH 6.0 buffer at a concentration of 10 μg/ml, fixed on AR2G biosensor, and blocked with 1M ethanolamine. The mouse monoclonal anti-Ang2 antibodies were diluted to 50, 25, 12.5, 6.25, 3.125, and 0 nM with 1× kinetic buffer, and subjected to association for 300 seconds and dissociation for 900 seconds. For affinity measurement (KD), the association rate (K-on) and dissociation rate (K-off) were analyzed by binding curve (global) and fitted to 1:1 binding model using OCTET® data analysis v9.0.0.10 program.

[2] = tested on: downstream signaling of the Tie2 receptor (Akt phosphorylation) in HUVECs; assay: Akt phosphorylation in HUVECs by mouse anti-Ang2 antibodies plus hAng2 (immunoblot); format: cell-based, human; conditions: serum-starved HUVECs; antibody combined with hAng2 1 μg/ml; 30 min
Experimental: To investigate whether the mouse anti-Ang2 antibodies induce the downstream signaling of the Tie2 receptor in endothelial cells, HUVECs (LONZA™) were treated with a combination of hAng2 protein and anti-Ang2 antibody, and then the level of Akt phosphorylation, the main downstream signaling protein of Tie2 receptor, was analyzed by immunoblotting. As a negative control group, the full-length hAng2 (R&D® Systems) alone was treated into the cells.
Specifically, HUVECs (1×10^5 cells/ml) were cultured in EGM-2 medium (LONZA™) at 37° C. in a 60 mm culture dish. Cells (90% confluency) were incubated with serum-free EBM-2 medium for 4 hrs for serum starvation. The serum-starved HUVECs were treated with a mixture of anti-Ang2 antibody and hAng2 protein (1 μg/ml, R&D® Systems) and further incubated for 30 min. The cells were washed with cold PBS, treated with lysis buffer, and lysed at 4° C. for 20 min. Then, the cell lysates were prepared by centrifugation at 13000 rpm for 15 min. 5× SDS sample buffer was added to the cell lysate and the cell lysate was boiled at 95° C. for 5 min. Then, the cell lysate was subjected to SDS PAGE and proteins were transferred to a nitrocellulose membrane (GE).
To investigate Akt phosphorylation, the blot was blocked with 5% skim milk-containing TBS-T for 1 hr at room temperature (RT), and incubated with anti-phospho-Akt antibody (S473) at 4° C. for about 8 hrs. The amount of phospho-Akt was visualized by an enhanced chemiluminescence (ECL). Then, the membrane was incubated in a stripping buffer (Thermo) for 15 min, and then reprobed with an anti-Akt antibody to determine the amount of total Akt.

Molecule | Koff [1] | Kon [1] | Akt phosphorylation at S473 [2]
B1 | 3.54e-06 s⁻¹ | 77800 M⁻¹ s⁻¹ | strongly induced
B2 | 5.04e-07 s⁻¹ | 137000 M⁻¹ s⁻¹ | strongly induced
